In experiment [1] the target is Human Nectin-4 (residues Gly32-Ser349; NCBI RefSeq: NP_112178.2) with C-terminal FLAG tag, biotinylated (human) (UniProt Q96NY8). The experiment is described as follows: SPR (Biacore 3000), biotinylated human Nectin-4 on streptavidin CM5 chip, drug conjugate as analyte. (In general: In SPR one partner is held on a chip, and binding of the other changes the refractive index at the surface.)

For experiment [2] the target is unchanged. The experiment is described as follows: SPR (Biacore 3000), biotinylated human Nectin-4 on streptavidin CM5 chip, peptide as analyte.
Experiment [3] deals with T1, human Nectin-4 (human), Q96NY8.
T1 chain: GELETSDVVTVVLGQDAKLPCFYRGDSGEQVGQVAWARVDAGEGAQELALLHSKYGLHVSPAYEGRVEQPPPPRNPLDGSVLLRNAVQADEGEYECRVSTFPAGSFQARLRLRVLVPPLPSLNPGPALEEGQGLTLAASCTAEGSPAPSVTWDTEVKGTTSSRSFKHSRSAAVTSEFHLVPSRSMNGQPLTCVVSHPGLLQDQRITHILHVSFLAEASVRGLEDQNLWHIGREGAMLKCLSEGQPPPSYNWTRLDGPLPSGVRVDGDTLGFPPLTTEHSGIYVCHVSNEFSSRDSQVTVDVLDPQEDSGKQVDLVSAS
The experiment is described as follows: FP competition with tracer m4. The settings on record: remark: other sources report otherwise.

*1 amine or outer side, *2 acyl side, *3 side chain or, on linkers, in order; H or OH if unused. Bridges are numbered along the chain shown (N, C = ends). Where no end group is shown, it is not given here. [ ]: non-standard residue; d: D form. TATA = O=C(CC[*:1])N1CN(C(=O)CC[*:2])CN(C(=O)CC[*:3])C1; 1Nal = N[C@@H](Cc1cccc2ccccc12)C(=O)O; PABC = O=C(OCc1ccc(N[*:1])cc1)[*:2]; Glutaryl = O=C(CCCC(=O)[*:2])[*:1]; Cya = N[C@@H](CS(=O)(=O)O)C(=O)O; Hyp = O=C(O)[C@@H]1C[C@@H](O)CN1; dCya = N[C@H](CS(=O)(=O)O)C(=O)O; hArg = N=C(N)NCCCC[C@H](N)C(=O)O; Cit = NC(=O)NCCC[C@H](N)C(=O)O; βAla = NCCC(=O)O; Sar = CNCC(=O)O

The Kd is the constant that tells how readily two partners part at equilibrium. Lower therefore signals higher affinity. On to {MMAE-PABC-Cit-Val-Glutaryl-βAla}-[Sar][Sar][Sar][Sar][Sar][Sar][Sar][Sar][Sar][Sar]CP[1Nal][dCya]CM[hArg][Cya]WSTP[Hyp]WC (linker 11-15-25 via TATA) [BCY8784: MMAE-PABC-Cit-Val-Glutaryl-BCY8273], for which the Kd in experiment [1] was found to be 0.662 nM.

For Ac-CP[1Nal][dD]CM[hArg][Cya]WSTP[Hyp]WC (linker 1-5-15 via TATA) [BCY8161: Ac-(SEQ ID NO: 177)], the Kd in experiment [2] was 0.94 nM.

For {Ac-βAla}-[Sar][Sar][Sar][Sar][Sar][Sar][Sar][Sar][Sar][Sar]CP[1Nal][dCya]CM[hArg][Cya]WSTP[Hyp]WC (linker 11-15-25 via TATA) [BCY8280: Ac-[B-Ala][Sar10]-(SEQ ID NO: 209)], the Kd in experiment [2] worked out at 2 nM.

On to {Ac-βAla}-[Sar][Sar][Sar][Sar][Sar][Sar][Sar][Sar][Sar][Sar]CP[1Nal][dD]CM[Cya][Cya]WSTP[Hyp]WC (linker 11-15-25 via TATA) [BCY8281: Ac-[B-Ala][Sar10]-(SEQ ID NO: 210)], for which the Kd in experiment [2] stood at 6.11 nM.

The Ki is a dissociation constant, usually derived from enzyme kinetics or from competition with a known ligand. A higher Ki goes with weaker binding. In turn, ACPFGCMKNWAWPIWCTNK (linker 2-6-16 via TATA) [BCY7424] returned a Ki in experiment [3] of 562 nM.

In the case of {Ac-βAla}-[Sar][Sar][Sar][Sar][Sar][Sar][Sar][Sar][Sar][Sar]CP[1Nal][dD]CM[hArg][Cya]WSTP[Hyp]WC (linker 11-15-25 via TATA) [BCY8278: Ac-[B-Ala][Sar10]-(SEQ ID NO: 177)], the Kd in experiment [2] turned out to be 1.92 nM.

The record behind these values is US20250066421A1.
